From patent US8349320 (dated 2013)

T1: mouse BTLA expressed on cells (mouse, UniProt Q7TSA3 30-306)
T1 chain: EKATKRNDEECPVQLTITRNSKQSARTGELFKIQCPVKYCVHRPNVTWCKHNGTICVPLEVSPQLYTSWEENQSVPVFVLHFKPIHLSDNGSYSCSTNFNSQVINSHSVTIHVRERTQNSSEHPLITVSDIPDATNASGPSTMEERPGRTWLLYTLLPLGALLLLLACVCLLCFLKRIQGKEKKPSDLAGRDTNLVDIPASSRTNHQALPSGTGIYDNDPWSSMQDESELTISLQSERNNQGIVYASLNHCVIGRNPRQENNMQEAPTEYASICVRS


Columns and labels:
[1] = biological target: T2, human BTLA expressed on cells (human, UniProt Q7Z6A9 31-289); assay: FACS binding to transfected 293T cells; bottom panel; axis printed mHVEM:Fc, presumably hHVEM:Fc
T2 sequence (Q7Z6A9 31-289): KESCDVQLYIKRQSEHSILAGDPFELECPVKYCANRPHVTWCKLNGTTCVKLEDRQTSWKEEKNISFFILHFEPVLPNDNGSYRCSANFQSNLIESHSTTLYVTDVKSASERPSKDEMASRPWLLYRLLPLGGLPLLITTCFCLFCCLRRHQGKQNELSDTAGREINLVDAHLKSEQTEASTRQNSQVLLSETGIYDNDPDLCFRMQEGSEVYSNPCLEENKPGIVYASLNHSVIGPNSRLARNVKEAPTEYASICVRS

[2] = biological target: T2, human BTLA expressed on cells; assay: FACS binding to transfected 293T cells; top panel
[3] = biological target: T1, mouse BTLA expressed on cells; assay: FACS binding to transfected 293T cells; top panel

Binder | EC50 [1] | EC50 [2] | EC50 [3]
human HVEM-Fc (Fc fusion, in the FIG. 3H assay biotinylated with NHS-PEO4-Biotin, 2 biotin molecules per HVEM-Fc (sites not given)) LPSCKEDEYPVGSECCPKCSPGYRVKEACGELTGTVCEPCPPGTYIAHLNGLSKCLQCQMCDPAMGLRASRNCSRTENAVCGCSPGHFCIVQDGDHCAACRAYATSSPGQRVQKGGTESQDTLCQNCPPGTFSPNGTLEECQHQTKCSWLVTKAGAGTSSSHWV | > 25 µg/mL | – | –
mouse HVEM-Fc (Fc fusion) QPSCRQEEFLVGDECCPMCNPGYHVKQVCSEHTGTVCAPCPPQTYTAHANGLSKCLPCGVCDPDMGLLTWQECSSWKDTVCRCIPGYFCENQDGSHCSTCLQHTTCPPGQRVEKRGTHDQDTVCADCLTGTFSLGGTQEECLPWTNCSAFQQEVRRGTNSTDTTCSSQ | – | 0.5 µg/mL | 0.8 µg/mL
